The results in this text go back to article PMC5356539, “Neuropilin-1 is a receptor for extracellular miRNA and AGO2/miRNA complexes and mediates the internalization of miRNAs that modulate cell function” (Oncotarget, 2016).

The assay concerns the target T1, Human recombinant AGO2, full-length protein (human, UniProt Q9UKV8 1-859).
T1 construct: human AGO2 (argonaute 2), full-length recombinant protein; also called full-length AGO2; source: bought: Biorbyt
The assay is described as follows: ELISA; plate coated with NRP1-Fc; full-length AGO2 pre-mixed or not with an equimolar amount of miR-20a (1 h, 37°C, Ca/Mg-HBSS) and serially diluted; bound AGO2 detected with anti-pan AGO2 antibody, anti-mouse IgG-HRP and TMB (OD450 minus non-specific binding). The following applies: both partners purified. On the technique in general: In an ELISA, binding on a coated surface is turned into a signal by an enzyme label.

T1 sequence (Q9UKV8 whole entry): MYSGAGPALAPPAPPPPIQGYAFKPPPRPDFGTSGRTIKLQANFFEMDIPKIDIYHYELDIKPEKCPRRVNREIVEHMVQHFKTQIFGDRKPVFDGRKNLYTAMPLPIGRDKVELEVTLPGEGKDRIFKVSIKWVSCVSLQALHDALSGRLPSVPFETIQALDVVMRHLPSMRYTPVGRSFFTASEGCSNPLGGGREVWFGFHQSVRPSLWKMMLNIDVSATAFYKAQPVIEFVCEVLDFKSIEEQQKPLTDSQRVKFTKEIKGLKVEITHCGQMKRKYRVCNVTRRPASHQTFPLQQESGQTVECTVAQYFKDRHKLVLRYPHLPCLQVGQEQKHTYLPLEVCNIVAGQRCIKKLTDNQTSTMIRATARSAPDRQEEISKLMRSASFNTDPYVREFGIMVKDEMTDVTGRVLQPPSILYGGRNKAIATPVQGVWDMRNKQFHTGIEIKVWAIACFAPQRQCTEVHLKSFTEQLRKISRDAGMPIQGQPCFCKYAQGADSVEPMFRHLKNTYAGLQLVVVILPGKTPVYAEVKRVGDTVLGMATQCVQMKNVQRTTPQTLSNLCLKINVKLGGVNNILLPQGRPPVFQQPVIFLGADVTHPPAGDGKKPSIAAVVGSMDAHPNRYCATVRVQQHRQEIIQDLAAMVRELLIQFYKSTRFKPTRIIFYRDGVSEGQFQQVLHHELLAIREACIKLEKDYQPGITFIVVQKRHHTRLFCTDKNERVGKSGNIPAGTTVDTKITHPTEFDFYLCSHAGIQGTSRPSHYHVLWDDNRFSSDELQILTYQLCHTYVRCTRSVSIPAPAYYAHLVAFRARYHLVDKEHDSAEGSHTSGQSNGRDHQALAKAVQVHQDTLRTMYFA

B1: Recombinant full-length rat neuropilin-1/Fc chimera (Fc fusion, UniProt Q9QWJ9 22-855, looked up)
chain: FRSDKCGGTIKIENPGYLTSPGYPHSYHPSEKCEWLIQAPEPYQRIMINFNPHFDLEDRDCKYDYVEVIDGENEGGRLWGKFCGKIAPSPVVSSGPFLFIKFVSDYETHGAGFSIRYEIFKRGPECSQNYTAPTGVIKSPGFPEKYPNSLECTYIIFAPKMSEIILEFESFDLEQDSNPPGGVFCRYDRLEIWDGFPEVGPHIGRYCGQKTPGRIRSSSGILSMVFYTDSAIAKEGFSANYSVLQSSISEDFKCMEALGMESGEIHSDQITASSQYGTNWSVERSRLNYPENGWTPGEDSYREWIQVDLGLLRFVTAVGTQGAISKETKKKYYVKTYRVDISSNGEDWITLKEGNKAIIFQGNTNPTDVVFGVFPKPLITRFVRIKPASWETGISMRFEVYGCKITDYPCSGMLGMVSGLISDSQITASNQGDRNWMPENIRLVTSRTGWALPPSPHPYINEWLQVDLGDEKIVRGVIIQGGKHRENKVFMRKFKIAYSNNGSDWKMIMDDSKRKAKSFEGNNNYDTPELRAFTPLSTRFIRIYPERATHSGLGLRMELLGCEVEVPTAGPTTPNGNPVDECDDDQANCHSGTGDDFQLTGGTTVLATEKPTIIDSTIQSEFPTYGFNCEFGWGSHKTFCHWEHDSHAQLRWRVLTSKTGPIQDHTGDGNFIYSQADENQKGKVARLVSPVVYSQSSAHCMTFWYHMSGSHVGTLRVKLHYQKPEEYDQLVWMVVGHQGDHWKEGRVLLHKSLKLYQVIFEGEIGKGNLGGIAVDDISINNHIPQEDCAKPTDLDKKNTEIKIDETGSTPGYEEGKGDKNISRKPGNVLKTLDP
notes: rat neuropilin-1, unmodified extracellular domain; transmembrane and cytosolic domains replaced with a C-terminal portion of human IgG-Fc; also called NRP1-Fc; NRP1; source: bought: R&D Systems; not shown: Fc (human IgG), C-terminal, kept
Regarding B1, the binding result is given as “binds”.
